Read-outs that look alike come from different tables or passages of the source. Values belong to the molecule of their own block, whether it stands above or below them.
B5: Notch1 full ectodomain (Notch1^fe), mouse (domain or fragment)
chain: ARGLRCSQPSGTCLNGGRCEVANGTEACVCSGAFVGQRCQDSNPCLSTPCKNAGTCHVVDHGGTVDYACSCPLGFSGPLCLTPLDNACLANPCRNGGTCDLLTLTEYKCRCPPGWSGKSCQQADPCASNPCANGGQCLPFESSYICRCPPGFHGPTCRQDVNECSQNPGLCRHGGTCHNEIGSYRCACRATHTGPHCELPYVPCSPSPCQNGGTCRPTGDTTHECACLPGFAGQNCEENVDDCPGNNCKNGGACVDGVNTYNCRCPPEWTGQYCTEDVDECQLMPNACQNGGTCHNTHGGYNCVCVNGWTGEDCSENIDDCASAACFQGATCHDRVASFYCECPHGRTGLLCHLNDACISNPCNEGSNCDTNPVNGKAICTCPSGYTGPACSQDVDECALGANPCEHAGKCLNTLGSFECQCLQGYTGPRCEIDVNECISNPCQNDATCLDQIGEFQCICMPGYEGVYCEINTDECASSPCLHNGHCMDKINEFQCQCPKGFNGHLCQYDVDECASTPCKNGAKCLDGPNTYTCVCTEGYTGTHCEVDIDECDPDPCHYGSCKDGVATFTCLCQPGYTGHHCETNINECHSQPCRHGGTCQDRDNSYLCLCLKGTTGPNCEINLDDCASNPCDSGTCLDKIDGYECACEPGYTGSMCNVNIDECAGSPCHNGGTCEDGIAGFTCRCPEGYHDPTCLSEVNECNSNPCIHGACRDGLNGYKCDCAPGWSGTNCDINNNECESNPCVNGGTCKDMTSGYVCTCREGFSGPNCQTNINECASNPCLNQGTCIDDVAGYKCNCPLPYTGATCEVVLAPCATSPCKNSGVCKESEDYESFSCVCPTGWQGQTCEVDINECVKSPCRHGASCQNTNGSYRCLCQAGYTGRNCESDIDDCRPNPCHNGGSCTDGINTAFCDCLPGFQGAFCEEDINECASNPCQNGANCTDCVDSYTCTCPVGFNGIHCENNTPDCTESSCFNGGTCVDGINSFTCLCPPGFTGSYCQYDVNECDSRPCLHGGTCQDSYGTYKCTCPQGYTGLNCQNLVRWCDSAPCKNGGRCWQTNTQYHCECRSGWTGVNCDVLSVSCEVAAQKRGIDVTLLCQHGGLCVDEGDKHYCHCQAGYTGSYCEDEVDECSPNPCQNGATCTDYLGGFSCKCVAGYHGSNCSEEINECLSQPCQNGGTCIDLTNSYKCSCPRGTQGVHCEINVDDCHPPLDPASRSPKCFNNGTCVDQVGGYTCTCPPGFVGERCEGDVNECLSNPCDPRGTQNCVQRVNDFHCECRAGHTGRRCESVINGCRGKPCKNGGVCAVASNTARGFICRCPAGFEGATCENDARTCGSLRCLNGGTCISGPRSPTCLCLGSFTGPECQFPASSPCVGSNPCYNQGTCEPTSENPFYRCLCPAKFNGLLCHILDYSFTGGAGRDIPPPQIEEACELPECQVDAGNKVCNLQCNNHACGWDGGDCSLNFNDPWKNCTQSLQCWKYFSDGHCDSQCNSAGCLFDGFDCQLTEGQCNPLYDQYCKDHFSDGHCDQGCNSAECEWDGLDCAEHVPERLAAGTLVLVVLLPPDQLRNNSFHFLRELSHVLHTNVVFKRDAQGQQMIFPYYGHEEELRKHPIKRSTVGWATSSLLPGTSGGRQRRELDPMDIRGSIVYLEIDNRQCVQSSSQCFQSATDVAAFLGALASLGSLNIPYKIEAVKSEPVE
B7: Jagged1^C2-EGF3,wt, C-terminally biotinylated SPR ligand (domain or fragment)
chain: ASGQFELEILSMQNVNGELQNGNCCGGVRNPGDRKCTRDECDTYFKVCLKEYQSRVTAGGPCSFGSGSTPVIGGNTFNLKASRGNDRNRIVLPFSFAWPRSYTLLVEAWDSSNDTIQPDSIIEKASHSGMINPSRQWQTLKQNTGIAHFEYQIRVTCDDHYYGFGCNKFCRPRDDFFGHYACDQNGNKTCMEGWMGPDCNKAICRQGCSPKHGSCKLPGDCRCQYGWQGLYCDKCIPHPGCVHGTCNEPWQCLCETNWGGQLCDKDLNYCGTHQPCLNRGTCSNTGPDKYQCSCPEGYSGPNCE
modifications: biotin on the C-terminal biotin acceptor peptide

Columns and labels:
[1] = molecular target: Jagged1^C2-EGF3,HA (mouse) (UniProt Q9QXX0); assay: MST
[2] = molecular target: Notch1^EGF33-NRR, C-terminally biotinylated SPR ligand (mouse) (UniProt Q01705); assay: SPR
[3] = molecular target: B7; assay: SPR
SEC-MALS = molecular target: the molecule itself; assay: SEC-MALS
[4] = molecular target: B7; assay: SPR; remark: listed apart in the source
[5] = molecular target: B5; assay: cross-linking
cross-linking = molecular target: the molecule itself; assay: cross-linking
Notch1^EGF33-NRR = molecular target: T1, Notch1^EGF33-NRR (mouse, UniProt Q01705 1267-1717); assay: SPR
T1 sequence: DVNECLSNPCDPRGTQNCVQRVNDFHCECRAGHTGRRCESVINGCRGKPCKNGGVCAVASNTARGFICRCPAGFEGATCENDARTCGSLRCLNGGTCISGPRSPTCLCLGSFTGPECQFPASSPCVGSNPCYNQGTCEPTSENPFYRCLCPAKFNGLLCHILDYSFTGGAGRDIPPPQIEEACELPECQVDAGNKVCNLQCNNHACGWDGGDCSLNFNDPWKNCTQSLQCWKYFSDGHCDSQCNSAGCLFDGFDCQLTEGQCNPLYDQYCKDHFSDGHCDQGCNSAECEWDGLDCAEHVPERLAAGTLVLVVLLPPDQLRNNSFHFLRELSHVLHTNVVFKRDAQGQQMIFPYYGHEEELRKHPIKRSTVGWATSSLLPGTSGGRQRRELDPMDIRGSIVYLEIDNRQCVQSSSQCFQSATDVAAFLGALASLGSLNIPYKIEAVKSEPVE

Kd [1]: 500 nM
Molecule: Notch1^EGF33-NRR (from UniProt Q01705 1267-1717) (domain or fragment)

Kd [2]: 290 nM
Kd [3]: 930 nM
B1: Jagged1^CRD,Fc (Fc-tagged, covalently dimerized) (Fc fusion)
chain: EVSGRSCITMGRVILDGAKWDDDCNTCQCLNGRVACSKVWCGPRPCRLHKSHNECPSGQSCIPVLDDQCFVRPCTGVGECRSSSLQPVKTKCTSDSYYQDNCANITFTFNKEMMSPGLTTEHICSELRNLNILKNVSAEYSIYIACEPSLSANNEIHVAISAEDIRDDGNPVKEITDKIIDLVSKRDGNSSLIAAVAEVRVQRRPLKNRTD

B2: Notch1 negative regulatory region (Notch1^NRR) (domain or fragment)
chain: EEACELPECQVDAGNKVCNLQCNNHACGWDGGDCSLNFNDPWKNCTQSLQCWKYFSDGHCDSQCNSAGCLFDGFDCQLTEGQCNPLYDQYCKDHFSDGHCDQGCNSAECEWDGLDCAEHVPERLAAGTLVLVVLLPPDQLRNNSFHFLRELSHVLHTNVVFKRDAQGQQMIFPYYGHEEELRKHPIKRSTVGWATSSLLPGTSGGRQRRELDPMDIRGSIVYLEIDNRQCVQSSSQCFQSATDVAAFLGALASLGSLNIPYKIEAVKSEPVE
stoichiometry N (SEC-MALS): 2

Kd [4]: ~1000 nM
B3: Notch1^NRRΔloop (domain or fragment)
chain: EEACELPECQVDAGNKVCNLQCNNHACGWDGGDCSLNFNDPWKNCTQSLQCWKYFSDGHCDSQCNSAGCLFDGFDCQLTEGQCNPLYDQYCKDHFSDGHCDQGCNSAECEWDGLDCAEHVPERLAAGTLVLVVLLPPDQLRNNSFHFLRELSHVLHTNVVFKRDAQGQQMIFPYYGDIRGSIVYLEIDNRQCVQSSSQCFQSATDVAAFLGALASLGSLNIPYKIEAVKSEPVE

binding result [5]: binds
B4: Jagged1 full ectodomain, wild type (Jagged1^fe,wt) (domain or fragment)
chain: ASGQFELEILSMQNVNGELQNGNCCGGVRNPGDRKCTRDECDTYFKVCLKEYQSRVTAGGPCSFGSGSTPVIGGNTFNLKASRGNDRNRIVLPFSFAWPRSYTLLVEAWDSSNDTIQPDSIIEKASHSGMINPSRQWQTLKQNTGIAHFEYQIRVTCDDHYYGFGCNKFCRPRDDFFGHYACDQNGNKTCMEGWMGPDCNKAICRQGCSPKHGSCKLPGDCRCQYGWQGLYCDKCIPHPGCVHGTCNEPWQCLCETNWGGQLCDKDLNYCGTHQPCLNRGTCSNTGPDKYQCSCPEGYSGPNCEIAEHACLSDPCHNRGSCKETSSGFECECSPGWTGPTCSTNIDDCSPNNCSHGGTCQDLVNGFKCVCPPQWTGKTCQLDANECEAKPCVNARSCKNLIASYYCDCLPGWMGQNCDININDCLGQCQNDASCRDLVNGYRCICPPGYAGDHCERDIDECASNPCLNGGHCQNEINRFQCLCPTGFSGNLCQLDIDYCEPNPCQNGAQCYNRASDYFCKCPEDYEGKNCSHLKDHCRTTTCEVIDSCTVAMASNDTPEGVRYISSNVCGPHGKCKSQSGGKFTCDCNKGFTGTYCHENINDCESNPCKNGGTCIDGVNSYKCICSDGWEGAHCENNINDCSQNPCHYGGTCRDLVNDFYCDCKNGWKGKTCHSRDSQCDEATCNNGGTCYDEVDTFKCMCPGGWEGTTCNIARNSSCLPNPCHNGGTCVVNGDSFTCVCKEGWEGPICTQNTNDCSPHPCYNSGTCVDGDNWYRCECAPGFAGPDCRININECQSSPCAFGATCVDEINGYQCICPPGHSGAKCHEVSGRSCITMGRVILDGAKWDDDCNTCQCLNGRVACSKVWCGPRPCRLHKSHNECPSGQSCIPVLDDQCFVRPCTGVGECRSSSLQPVKTKCTSDSYYQDNCANITFTFNKEMMSPGLTTEHICSELRNLNILKNVSAEYSIYIACEPSLSANNEIHVAISAEDIRDDGNPVKEITDKIIDLVSKRDGNSSLIAAVAEVRVQRRPLKNRTD

Molecule: B5
binding result (cross-linking): binds

Kd [2]: 290 nM
Kd [3]: 340 nM
B6: Jagged1^EGF8-11,Fc (Fc-tagged, covalently dimerized) (Fc fusion)
chain: DIDECASNPCLNGGHCQNEINRFQCLCPTGFSGNLCQLDIDYCEPNPCQNGAQCYNRASDYFCKCPEDYEGKNCSHLKDHCRTTTCEVIDSCTVAMASNDTPEGVRYISSNVCGPHGKCKSQSGGKFTCDCNKGFTGTYCHENINDCESNPCKNGGTCIDGVNSYKCICSDGWEGAHCE

Molecule: B7
binding result (Notch1^EGF33-NRR): binds

Kd (Notch1^EGF33-NRR): 115000 nM
B8: Notch1^EGF8-13, C-terminally biotinylated SPR ligand (domain or fragment)
chain: EDVDECQLMPNACQNGGTCHNTHGGYNCVCVNGWTGEDCSENIDDCASAACFQGATCHDRVASFYCECPHGRTGLLCHLNDACISNPCNEGSNCDTNPVNGKAICTCPSGYTGPACSQDVDECALGANPCEHAGKCLNTLGSFECQCLQGYTGPRCEIDVNECISNPCQNDATCLDQIGEFQCICMPGYEGVYCEINTDECASSPCLHNGHCMDKINEFQCQCPKGFNGHLCQ
modifications: biotin on the C-terminal biotin acceptor peptide
